Measurements reported in US20240352438A1, “MEANS AND METHODS FOR DETOXIFYING OCHRATOXIN A” (DSM Austria GmbH, priority 2021, published 2024).
Residue numbers refer to the chain shown, from its start.

B1: 169 (protein)
chain: MTTRTRILTAFLSLLAANACAADAAPAAPHTVVLRAARMFDGASGKLVDHPQLTIVGNKIVRIAQGDKAEVPAGAEVVDLGDATLLPGFIDAHVHLSGQSSDNWYGDFFDNMMRFPAEQALYGAYYARITLEAGFTSVRDVGSTDWVALGLRNAIDAGKVPGPRMLVSNYPVGSTGGHADQDPIPPHKLPLAGPLQGVCNGPEECRAAVRYQIKYGANVIKFMPSGGVLSLSDPVDAPELSQDEMNAVIGESHAWGRKVAAHAHGDKAAKMAVAAGVDSIEHGSFIEDDTLRAMKAKNVYLVPTISAVAHVEEKIGTYPPVIAEKGRAAAAHLRQTFRHAVQIGVPIALGTDAGVGAHGSNAREFRYMVENGLTPAQALLAGTANAARLLGTFDRVGTLEAGKLADVVAVPGNPIADITVTERPLFVMKDGVVVRRDAVR
modifications: exemplary polypeptide
B2: 174 (protein)
chain: B1 chain with P171A, I184V
modifications: exemplary polypeptide
B3: 181 (protein)
chain: B1 chain with Y170F, P171A, V308I, Y318F
modifications: exemplary polypeptide
B4: 188 (protein)
chain: B1 chain with P171A, V308I, Y318F, L333V
modifications: exemplary polypeptide
B5: 190 (protein)
chain: B1 chain with P171A, V308I, Y318F, G354S
modifications: exemplary polypeptide
B6: 189 (protein)
chain: B1 chain with P171A, V308I, Y318F, G354L
modifications: exemplary polypeptide
B7: 180 (protein)
chain: B1 chain with Y170E, P171A, V308I, Y318F
modifications: exemplary polypeptide
B8: 177 (protein)
chain: B1 chain with P171A, I184V, V308I, G354A
modifications: exemplary polypeptide
B9: 184 (protein)
chain: B1 chain with P171A, V308I, Y318F, A330M
modifications: exemplary polypeptide
B10: 186 (protein)
chain: B1 chain with P171A, V308I, Y318F, L333I
modifications: exemplary polypeptide
B11: 173 (protein)
chain: B1 chain with P171A, I184V, V308A
modifications: exemplary polypeptide
B12: 196 (protein)
chain: B1 chain with P171A, V308I, Y318F, G356V
modifications: exemplary polypeptide
B13: 179 (protein)
chain: B1 chain with P171A, G354A
modifications: exemplary polypeptide
B14: 187 (protein)
chain: B1 chain with P171A, V308I, Y318F, L333M
modifications: exemplary polypeptide
B15: 192 (protein)
chain: B1 chain with P171A, V308I, Y318F, G354V
modifications: exemplary polypeptide
B16: 182 (protein)
chain: B1 chain with Y170R, P171A, V308I, Y318F
modifications: exemplary polypeptide
B17: 198 (protein)
chain: B1 chain with W104F, P171A, V308I, Y318F
modifications: exemplary polypeptide
B18: 183 (protein)
chain: B1 chain with P171A, V308I, Y318F, A330L
modifications: exemplary polypeptide
B19: 175 (protein)
chain: B1 chain with P171A, I184V, V308A, Y318F, G354A
modifications: exemplary polypeptide
B20: 197 (protein)
chain: B1 chain with P171A, V308I, Y318F, G356Y
modifications: exemplary polypeptide
B21: 194 (protein)
chain: B1 chain with P171A, V308I, Y318F, G356F
modifications: exemplary polypeptide
B22: 195 (protein)
chain: B1 chain with P171A, V308I, Y318F, G356P
modifications: exemplary polypeptide
B23: 193 (protein)
chain: B1 chain with P171A, V308I, Y318F, G356A
modifications: exemplary polypeptide

Assay: OTA detoxification activity assay (specific activity, fluorescence reduction ex/em 390/450 nm)
Type: biochemical
Conditions: pH 6.0; SEQ ID NO: 1 = 100%
In short: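 Recombinant enzyme preparation with 200 ng/mL OTA in 100 mM sodium phosphate, at pH 6.0 and pH 7.5, 37° C. Degradation followed as the fall in fluorescence at ex/em 390/450 nm. Specific activity taken from the initial linear slope; one unit degrades 1 μmol OTA per min at a starting OTA of […].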

Row | Molecule | Specific OTA detoxification activities in % compared to the enzyme of SEQ ID NO: 1, pH 6.0
1 | B1 | 50%
2 | B2 | 45%
3 | B3 | 138%
4 | B4 | 84%
5 | B5 | 122%
6 | B6 | 82%
7 | B7 | 91%
8 | B8 | 94%
9 | B9 | 103%
10 | B10 | 142%
11 | B11 | 27%
12 | B12 | 48%
13 | B13 | 49%
14 | B14 | 51%
15 | B15 | 69%
16 | B16 | 98%
17 | B17 | 111%
18 | B18 | 58%
19 | B19 | 121%
20 | B20 | 59%
21 | B21 | 78%
22 | B22 | 148%
23 | B23 | 81%

Same assay, conditions: pH 7.5; SEQ ID NO: 1 = 100%

Row | Molecule | Specific OTA detoxification activities in % compared to the enzyme of SEQ ID NO: 1, pH 7.5
24 | B1 | 45%
25 | B2 | 59%
26 | B3 | 112%
27 | B4 | 52%
28 | B5 | 85%
29 | B6 | 22%
30 | B7 | 83%
31 | B8 | 90%
32 | B9 | 76%
33 | B10 | 115%
34 | B11 | 53%
35 | B12 | 58%
36 | B13 | 66%
37 | B14 | 58%
38 | B15 | 30%
39 | B16 | 91%
40 | B17 | 84%
41 | B18 | 55%
42 | B19 | 108%
43 | B20 | 29%
44 | B21 | 52%
45 | B22 | 100%
46 | B23 | 85%

Assay: Enzymatic activity comparison: activity remaining after 65° C. for 10 min at pH 6.0, relative to SEQ ID NO: 1
Type: physicochemical
Conditions: not given
Protocol: To compare the temperature behavior and thermostability of selected enzymes to one another, enzyme was incubated at 65° C. for 10 min at pH 6.0. The enzymatic activity remaining after incubation was compared to the remaining activity of the enzyme of SEQ ID NO: 1 after incubation, the latter being set to 100%, see Table 16.

Row | Molecule | Enzymatic activity remaining after incubation, compared to SEQ ID NO: 1 (set to 100%)
47 | B1 | 30%
48 | B2 | 54%
49 | B3 | 47%
50 | B4 | 45%
51 | B5 | 15%
52 | B6 | 19%
53 | B7 | 28%
54 | B8 | 20%
55 | B9 | 46%
56 | B10 | 42%
57 | B11 | 53%
58 | B12 | 57%
59 | B13 | 17%
60 | B14 | 36%
61 | B15 | 41%
62 | B16 | 38%
63 | B17 | 55%
64 | B18 | 75%
65 | B19 | 13%
66 | B20 | 29%
67 | B21 | 45%
68 | B22 | 38%
69 | B23 | 42%
